Test results taken from FireProtDB (doi:10.1021/bi00017a003).

B1: Subtilisin-chymotrypsin inhibitor-2A, P01053 (parent)
chain: MSSVEKKPEGVNTGAGDRHNLKTEWPELVGKSVEEAKKVILQDKPEAQIIVLPVGTIVTMEYRIDRVRLFVDKLDNIAQVPRVG

Variants of: B1
Settings: Hordeum vulgare; pH 6.3; 25 °C; GdnHCl; Fluorescence; MES 50 mM; structure 2CI2; whole UniProt chain shown

| Variant | ddG of mutation (higher = less stable) [kcal/mol] | denaturant m value [kcal/mol/M] | denaturant midpoint (higher = more stable) [M] |
| --- | --- | --- | --- |
| A78G | 1.88 | 2.19 | 3.03 |
| V83G | 3.5 | 2.1 | 2.2 |
| V83A | 1.45 | 1.95 | 3.25 |
| V83T | 1.15 | 1.79 | 3.41 |
| T23A | 0.85 | 1.83 | 3.56 |
| T23V | 0.32 | 1.67 | 3.83 |
| T23G | 1.16 | 1.95 | 3.4 |
| I50V | -0.08 | 1.77 | 4.04 |
| I50A | 2.12 | 2.22 | 3.91 |
| I50G | 3.52 | 2.13 | 2.19 |
| V54G | 2.43 | 2 | 2.75 |
| V54T | 1.03 | 1.65 | 3.47 |
| V80G | 3.24 | 2.61 | 2.33 |
| V80A | 1.51 | 1.92 | 3.22 |
| V80T | 0.38 | 1.63 | 3.8 |
